Measurements as given in patent US11661461B2, “Phospho-Rab antibodies, assays and methods of use thereof” (Denali Therapeutics Inc., priority 2017, dated 2023).
Where a chain is given by its changes, count along the chain named. Each block holds one molecule with its values, some of them ahead of it.

Legend:
LRRK2 = biological target: T1, LRRK2 (Rattus norvegicus, UniProt F1LNJ1); assay: 10-day oral dosing study in rats, pT73-Rab10 and pS935-LRRK2 western blot; assay type: in vivo; details: for pT73-Rab10, Brain / pT73-Rab10, Lung / pS935-LRRK2, Brain / pS935-LRRK2, Lung: rats, daily oral 10 days, mean with SEM; for pT73-Rab10, Brain / pT73-Rab10, Lung: normalized to actin and vehicle control group; for pS935-LRRK2, Brain / pS935-LRRK2, Lung: normalized to vinculin and vehicle control group
T1 construct: from tissue; host or cells: rat brain and lung (in vivo dosing)
Procedure: Dose-dependent inhibition of pT73-Rab10 was tested in a 10-day oral dosing study in rats. Rats were dosed daily with the LRRK2 Inhibitor B at a dose of 10 mg/kg, 30 mg/kg, or 45 mg/kg. Tissues (brain and lung) were harvested, homogenized and analyzed by western blot. […] Signals from dosed groups were normalized to vehicle control group. Data were presented as mean with SEM.

[1] = biological target: T2, phosphorylated Rab10 in lysates of HEK cells overexpressing LRRK2 (Homo sapiens, UniProt P61026); assay: Sandwich ELISA (diagnostic), HEK cells overexpressing LRRK2; assay type: binding; details: for Sandwich ELISA (diagnostic), Ratio: DMSO / LRRK2 inhibitor A RLU; for Sandwich ELISA (diagnostic) HEK cells overexpressing LRRK2, DMSO (RLU mean ± SD): DMSO treated cells; for Sandwich ELISA (diagnostic) HEK cells overexpressing LRRK2, LRRK2 inhibitor A (RLU mean ± SD): cells treated with LRRK2 inhibitor A
T2 construct: expressed in transfected cells; host or cells: HEK cells overexpressing LRRK2
T2 sequence (P61026 1-200): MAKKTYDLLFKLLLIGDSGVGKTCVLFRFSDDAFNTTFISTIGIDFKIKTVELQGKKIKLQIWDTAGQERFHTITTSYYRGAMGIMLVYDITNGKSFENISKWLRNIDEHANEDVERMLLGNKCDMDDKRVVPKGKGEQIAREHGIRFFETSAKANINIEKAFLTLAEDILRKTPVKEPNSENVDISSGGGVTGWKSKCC
Procedure: Sandwich ELISA (Diagnostic) with Anti-Phospho-Rab10 Antibody as the Capture Antibody:
ELISA plates were prepared by coating white Nunc MaxiSorp 384 well plates (Thermo Fisher #460372/Sigma #P6491) with capture antibody for 1 hour at room temperature on a shaking platform. The capture antibody was purified anti-phospho-Rab10 clone 19-4 diluted to 1 ug/mL in carbonate-bicarbonate buffer, and 15 uL/well of coating solution was added to the plate before incubation. Plates were then washed 3× with TBST on a BioTek plate washer. For all subsequent blocking/incubation steps, Pierce Starting Block T20 (TBS) was used (Thermo Fisher #37543). Plates were blocked […] in this solution using 80 uL/well and washed 3× as before. Afterwards samples of cell lysates were added (neat with no dilution) using 30 uL/well and incubated 1 hour at room temperature on a shaking platform. After another 3× wash detection antibody (Creative Diagnostics DCABH 13141, or Abcam, ab104859, 2 ug/mL) was added using 30 uL/well. After 60 minute incubation at room temperature and washing 3×, the secondary anti-species conjugate was added (anti-rabbit HRP antibody (Jackson ImmunoResearch 111-035-144) diluted 1:20000 in assay diluent) at 30 uL/well. After a 60 minute incubation, plates were washed 3× as before. The HRP substrate (Supersignal ELISA Femto HRP substrate—Thermo Fisher #37075) was prepared during this time by mixing both components and equilibrating to room temperature. 50 uL/well of substrate was added to plates, which then were covered and briefly incubated for 1-2 minutes on a shaker platform. Afterwards plates were read on the Synergy plate reader to measure relative light units (RLU).
Sandwich ELISA (Diagnostic) with Anti-Rab10 (Total) Antibody as the Capture Antibody:
ELISA plates were prepared by coating white Nunc MaxiSorp 384 well plates (Thermo Fisher #460372/Sigma # P6491) with capture antibody overnight at 4° C. on a shaking platform. The capture antibodies (anti-Rab10 antibody from either Creative Diagnostics, DCABH-13141, or Abcam, ab104859) were diluted to […] (or 1:100 if the concentration not known) in carbonate-bicarbonate buffer, and 15 uL/well of coating solution was added to the plate before incubation. After this plates were washed 3× with TBST on a BioTek plate washer. For all subsequent blocking/incubation steps, Pierce Starting Block (TBS) (no Tween added) was used (Thermo Fisher #37542). Plates were blocked for 1 hour at room temperature in this solution using 80 uL/well and washed 3× as before. Afterwards samples were added (with lysates being diluted 1:20 in the assay diluent) using 30 uL/well and incubated 2 hours at room temperature on a shaking platform. After another 3× wash detection antibodies were added (diluted to 1 ug/mL for purified antibodies or 1:2 for supernatants) using 30 uL/well. After 90 minute incubation at room temperature and washing 3× the secondary anti-species conjugate was added (anti-rabbit HRP antibody (Jackson ImmunoResearch 111-035-144) diluted 1:20000 in assay diluent) at 30 uL/well. After a 45 minute incubation plates were washed 3× as before. The HRP substrate (Supersignal ELISA Femto HRP substrate—Thermo Fisher #37075) was prepared during this time by mixing both components and equilibrating to room temperature. 50 uL/well of substrate was added to plates, which then were covered and briefly incubated for 1-2 minutes on a shaker platform. Afterwards plates were read on the Synergy plate reader to measure relative light units (RLU).

[2] = biological target: T3, endogenous phosphorylated Rab10 in human PBMC (Homo sapiens, UniProt P61026); assay: Western blot of human PBMC with anti-pT73-Rab10 antibodies; assay type: binding; details: for detection of endogenous phosphorylated Rab10 signals in human PBMC by western blot: antibody at 1 ug/ml; for Western blot Human PBMC Ratio of DMSO/LRRK2 inhibitor A (mean ± SEM): band intensity normalized with Actin control for each of DMSO and LRRK2 inhibitor A, antibody 1 ug/ml
T3 construct: Strong endogenous phosphorylated Rab10 or phosphorylated Rab8a in human PBMC; host or cells: human PBMC
T3 sequence (P61026 1-200): T2 sequence (P61026 1-200)

T1 sequence (F1LNJ1 1-2526): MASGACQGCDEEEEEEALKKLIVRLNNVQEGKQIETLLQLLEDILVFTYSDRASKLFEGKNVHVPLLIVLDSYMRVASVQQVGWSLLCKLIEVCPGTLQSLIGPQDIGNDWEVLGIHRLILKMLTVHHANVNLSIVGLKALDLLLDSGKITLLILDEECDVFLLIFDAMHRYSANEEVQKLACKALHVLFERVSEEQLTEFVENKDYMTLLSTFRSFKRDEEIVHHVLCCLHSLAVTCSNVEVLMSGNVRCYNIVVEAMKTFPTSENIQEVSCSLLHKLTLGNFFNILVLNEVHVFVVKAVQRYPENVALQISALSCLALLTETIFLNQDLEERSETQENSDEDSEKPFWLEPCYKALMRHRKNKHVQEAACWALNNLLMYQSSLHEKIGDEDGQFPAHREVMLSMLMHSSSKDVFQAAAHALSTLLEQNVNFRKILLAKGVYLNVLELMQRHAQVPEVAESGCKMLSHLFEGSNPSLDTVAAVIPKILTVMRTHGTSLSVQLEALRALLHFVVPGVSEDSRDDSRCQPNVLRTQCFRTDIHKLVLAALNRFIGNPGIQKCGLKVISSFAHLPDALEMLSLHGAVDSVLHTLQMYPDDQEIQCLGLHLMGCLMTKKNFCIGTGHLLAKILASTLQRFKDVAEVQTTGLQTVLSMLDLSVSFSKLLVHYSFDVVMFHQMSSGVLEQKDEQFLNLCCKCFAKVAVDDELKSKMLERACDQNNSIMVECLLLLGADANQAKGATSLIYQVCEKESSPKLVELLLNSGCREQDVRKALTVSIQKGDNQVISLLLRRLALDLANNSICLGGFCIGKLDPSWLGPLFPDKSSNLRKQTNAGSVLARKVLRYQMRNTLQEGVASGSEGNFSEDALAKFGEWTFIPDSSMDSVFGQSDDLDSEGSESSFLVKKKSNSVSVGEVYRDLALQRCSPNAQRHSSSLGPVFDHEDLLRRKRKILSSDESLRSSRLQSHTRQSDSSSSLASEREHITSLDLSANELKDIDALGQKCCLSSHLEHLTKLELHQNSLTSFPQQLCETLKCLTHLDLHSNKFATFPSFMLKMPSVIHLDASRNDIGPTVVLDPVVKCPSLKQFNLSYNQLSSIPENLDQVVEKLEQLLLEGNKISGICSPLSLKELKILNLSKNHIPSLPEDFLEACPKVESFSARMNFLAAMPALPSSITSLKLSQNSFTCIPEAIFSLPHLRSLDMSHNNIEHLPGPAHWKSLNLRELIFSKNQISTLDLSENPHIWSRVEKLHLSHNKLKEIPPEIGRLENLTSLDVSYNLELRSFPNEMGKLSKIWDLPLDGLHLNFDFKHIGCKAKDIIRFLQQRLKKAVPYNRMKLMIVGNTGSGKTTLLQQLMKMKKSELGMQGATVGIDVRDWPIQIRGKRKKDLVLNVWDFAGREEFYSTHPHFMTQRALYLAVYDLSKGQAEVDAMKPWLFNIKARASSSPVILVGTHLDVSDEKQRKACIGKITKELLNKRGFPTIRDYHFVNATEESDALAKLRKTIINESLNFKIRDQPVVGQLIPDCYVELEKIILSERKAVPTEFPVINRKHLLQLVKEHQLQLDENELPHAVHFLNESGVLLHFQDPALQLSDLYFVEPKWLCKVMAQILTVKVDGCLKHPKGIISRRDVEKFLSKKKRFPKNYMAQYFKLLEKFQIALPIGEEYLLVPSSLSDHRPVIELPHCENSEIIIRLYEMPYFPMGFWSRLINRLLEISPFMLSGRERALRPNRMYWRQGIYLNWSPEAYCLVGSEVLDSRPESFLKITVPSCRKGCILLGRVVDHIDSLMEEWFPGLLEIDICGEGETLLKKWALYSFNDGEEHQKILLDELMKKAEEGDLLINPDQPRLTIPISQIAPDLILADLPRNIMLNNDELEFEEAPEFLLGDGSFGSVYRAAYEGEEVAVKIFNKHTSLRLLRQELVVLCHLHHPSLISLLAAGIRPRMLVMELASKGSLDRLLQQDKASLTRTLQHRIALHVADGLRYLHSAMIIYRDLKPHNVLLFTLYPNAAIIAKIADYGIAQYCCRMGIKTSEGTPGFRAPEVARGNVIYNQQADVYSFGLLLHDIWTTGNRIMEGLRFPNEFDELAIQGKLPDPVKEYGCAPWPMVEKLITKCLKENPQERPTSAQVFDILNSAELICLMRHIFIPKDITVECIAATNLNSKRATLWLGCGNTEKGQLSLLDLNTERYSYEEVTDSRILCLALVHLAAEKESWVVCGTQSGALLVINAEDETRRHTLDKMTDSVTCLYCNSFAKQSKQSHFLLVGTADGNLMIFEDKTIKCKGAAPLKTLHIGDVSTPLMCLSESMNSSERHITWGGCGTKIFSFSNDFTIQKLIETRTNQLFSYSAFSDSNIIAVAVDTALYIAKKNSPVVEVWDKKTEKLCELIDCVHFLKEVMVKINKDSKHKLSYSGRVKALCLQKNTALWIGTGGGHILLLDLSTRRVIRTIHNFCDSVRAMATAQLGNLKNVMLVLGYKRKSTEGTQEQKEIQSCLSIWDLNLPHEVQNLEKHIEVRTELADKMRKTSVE

B1: Clone 133-2: anti-phosphorylated (pT73) Rab10 rabbit monoclonal antibody; VH SEQ ID NO:31, VL SEQ ID NO:35 (antibody, V domains shown)
VH: METGLRWLLLVAVLKGVQCQEQLVESGGGLVQPEGSLTLTCKASGFDLSSHYYMCWVRQAPGKGLEWIVCISNGSGNTYYASWAKGRFTISKTSSTTVTLHMTSLTVADTATYFCARNFGSNYGDAFDPWGPGTLVTVSS
VL: MDTRAPTQLLGLLLLWLPGATFAQVLTQTPSPVSAAVGGTVTISCQSSKSVYSNNYLSWYQQKPGQPPKLLIYSASILASGVPSRFSGSGSGTQFTLTISGVQCDDAATYYCQGSYAGSGWYIGFGGGTEVVVK
Sandwich ELISA (diagnostic), Ratio [1]: 2.25
Sandwich ELISA (diagnostic) HEK cells overexpressing LRRK2, DMSO (RLU mean ± SD) [1]: 18605 ± 4874 RLU
Sandwich ELISA (diagnostic) HEK cells overexpressing LRRK2, LRRK2 inhibitor A (RLU mean ± SD) [1]: 8265 ± 1428 RLU

B2: Clone 153-2: anti-phosphorylated (pT73) Rab10 rabbit monoclonal antibody; VH SEQ ID NO:39, VL SEQ ID NO:43 (antibody, V domains shown)
VH: METGLRWLLLVAVLKGVQCQSVEESGGRLVTPGTPLTLTCTASGFSLSTYYMSWVRQAPGKGLEWIGIINTGGIVHYANWVRGRFTISKTSTTVDLRITSPTAEDTATYFCARAYSADRLDLWGQGTLVTVSS
VL: MDTRAPTQLLGLLLLWLPGATFAAVLTQTPSPVSAAVGGTVTISCQSSESVYGNNRLSWYQQKPGQPPKLLMYYASTLASGVPSRFRGSGSGTQFTLTISDVQCDDAASYYCLGGYKRDSNNAFGGGTEVVVK
Sandwich ELISA (diagnostic), Ratio [1]: 141.26
Sandwich ELISA (diagnostic) HEK cells overexpressing LRRK2, DMSO (RLU mean ± SD) [1]: 596606 ± 80346 RLU
Sandwich ELISA (diagnostic) HEK cells overexpressing LRRK2, LRRK2 inhibitor A (RLU mean ± SD) [1]: 4223 ± 293 RLU

B3: Clone 5: anti-phosphorylated (pT73) Rab10 rabbit monoclonal antibody; VH SEQ ID NO:1, VL SEQ ID NO:5 (antibody, V domains shown)
VH: METGLRWLLLVAVLKGVQCQSVEESGGRLVTPGTPLTLTCTVSGFSLSSYAMVWVRQAPGKGLEYIGLISRSGVTYYATWAKGRFTISKASTTVDLKIASPTTGDTATYFCVRDYDINGWSGFTIWGPGTLVTVSA
VL: MDTRAPTQLLGLLLWLPGAICDPVMTQTPSSTSAAVGGTVTINCQSSQSVYGNNYFSWYQQKPGQPPKLLIYKASTLASGVPSRFKGSGSGTQFTLTISDLECDDAATYYCAGAASDTRFFGGGTELVVN
detection of endogenous phosphorylated Rab10 signals in human PBMC by western blot [2]: detected endogenous phosphorylated Rab signals
Western blot Human PBMC Ratio of DMSO/LRRK2 inhibitor A (mean ± SEM) [2]: 3.45 ± 0.53
Sandwich ELISA (diagnostic), Ratio [1]: 23.63
Sandwich ELISA (diagnostic) HEK cells overexpressing LRRK2, DMSO (RLU mean ± SD) [1]: 85175 ± 16412 RLU
Sandwich ELISA (diagnostic) HEK cells overexpressing LRRK2, LRRK2 inhibitor A (RLU mean ± SD) [1]: 3604 ± 1165 RLU

B4: Clone 19: anti-phosphorylated (pT73) Rab10 rabbit monoclonal antibody; VH SEQ ID NO:11, VL SEQ ID NO:13 (antibody, V domains shown)
VH: B3 VH with I117S, N118A
VL: MDTRAPTQLLGLLLLWLPGAICDPVMTQTPSSTSAAVGGTVTINCQSSQSVYGNNYLSWYQQKPGQPPKLLIYKASTLASGVPSRSVGSGSGTQFTLTISDLECDDAATYYCAGAASDTRFFGGGTELVVN
detection of endogenous phosphorylated Rab10 signals in human PBMC by western blot [2]: detected endogenous phosphorylated Rab signals
Western blot Human PBMC Ratio of DMSO/LRRK2 inhibitor A (mean ± SEM) [2]: 3.39 ± 0.89

Further lines, with some results ahead:

pT73-Rab10, Brain (LRRK2; High dose (doses 10, 30, 45 mg/kg), N = 5): 0.225 ± 0.0394
pT73-Rab10, Lung (LRRK2; High dose): 0.109 ± 0.0126
pS935-LRRK2, Brain (LRRK2; High dose): 0.04 ± 0.016
pS935-LRRK2, Lung (LRRK2; High dose): 0.076 ± 0.022
pT73-Rab10, Brain (LRRK2; Low dose (doses 10, 30, 45 mg/kg), N = 6): 0.676 ± 0.102
pT73-Rab10, Lung (LRRK2; Low dose): 0.25 ± 0.0126
pS935-LRRK2, Brain (LRRK2; Low dose): 0.693 ± 0.164
pS935-LRRK2, Lung (LRRK2; Low dose): 0.295 ± 0.026
pT73-Rab10, Brain (LRRK2; Medium dose (doses 10, 30, 45 mg/kg), N = 6): 0.268 ± 0.0745
pT73-Rab10, Lung (LRRK2; Medium dose): 0.133 ± 0.0137
pS935-LRRK2, Brain (LRRK2; Medium dose): 0.086 ± 0.021
pS935-LRRK2, Lung (LRRK2; Medium dose): 0.094 ± 0.012
Molecule: CNc1nc(Nc2cn(C(C)(C)C#N)nc2C)ncc1C(F)(F)F [LRRK2 Inhibitor B, 2-methyl-2-(3-methyl-4-(4-(methylamino)-5-(trifluoromethyl)pyrimidin-2-ylamino)-1H-pyrazol-1-yl)propanenitrile]
dephosphorylation of pS935-LRRK2 and pT73-Rab10 (LRRK2; rats, 10, 30 or 45 mg/kg daily oral, 10 days, brain and lung): comparable dose-dependent dephosphorylation

Sandwich ELISA (diagnostic), Ratio [1]: 7.20
Sandwich ELISA (diagnostic) HEK cells overexpressing LRRK2, DMSO (RLU mean ± SD) [1]: 13096 ± 1715 RLU
Sandwich ELISA (diagnostic) HEK cells overexpressing LRRK2, LRRK2 inhibitor A (RLU mean ± SD) [1]: 1820 ± 276 RLU
B5: Clone 247-8: anti-phosphorylated (pT73) Rab10 rabbit monoclonal antibody; VH SEQ ID NO:47, VL SEQ ID NO:51 (antibody, V domains shown)
VH: B3 VH with V53G, L68I, V74I, K97R, G104E, Y109F, I117S, N118S, T124N, A136L
VL: MDTRAPTQLLGLLLLWLPGAICDPVMTQTPSSTSAAVGGTVTINCQSSQSVYGNNYLSWFQQKPGQPPKLLIYKASTLASGVPSRFKGSGSGTQFTLTISGVQCDDAATYYCAGAYSDNRVFGGGTEVVVK

Sandwich ELISA (diagnostic), Ratio [1]: 77.37
Sandwich ELISA (diagnostic) HEK cells overexpressing LRRK2, DMSO (RLU mean ± SD) [1]: 212085 ± 27432 RLU
Sandwich ELISA (diagnostic) HEK cells overexpressing LRRK2, LRRK2 inhibitor A (RLU mean ± SD) [1]: 2741 ± 309 RLU
B6: Clone 256-6: anti-phosphorylated (pT73) Rab10 rabbit monoclonal antibody; VH SEQ ID NO:53, VL SEQ ID NO:56 (antibody, V domains shown)
VH: B3 VH with S49N, I117A
VL: B4 VL with S86F, V87K, E103D, L128V, N131K
